Among the data in patent US20230279118A1 (published 2023) are Kd, koff and kon values, retold here.

B1: canine IgG.B Fc variant E380A with SASA tag (Fc fusion)
chain: APEMLGGPSVFIFPPKPKDTLLIARTPEVTCVVVDLDPEDPEVQISWFVDGKQMQTAKTQPREEQFNGTYRVVSVLPIGHQDWLKGKQFTCKVNNKALPSPIERTISKARGQAHQPSVYVLPPSREELSKNTVSLTCLIKDFFPPDIDVAWQSNGQQEPESKYRTTPPQLDEDGSYFLYSKLSVDKSRWQRGDTFICAVMHEALHNHYTQESLSHSPGK
B2: canine IgG.B Fc variant T256A with SASA tag (Fc fusion)
chain: B1 chain with T26A, A150E
B3: canine IgG.B Fc variant H433A with SASA tag (Fc fusion)
chain: B1 chain with A150E, H205A
B4: canine IgG.B Fc variant G309A with SASA tag (Fc fusion)
chain: B1 chain with G79A, A150E
B5: canine IgG.B Fc variant I308A with SASA tag (Fc fusion)
chain: B1 chain with I78A, A150E
B6: canine IgG.B Fc variant P307A with SASA tag (Fc fusion)
chain: B1 chain with P77A, A150E
B7: canine IgG.B Fc variant Q285A with SASA tag (Fc fusion)
chain: B1 chain with Q55A, A150E
B8: canine IgG.B Fc variant D378A with SASA tag (Fc fusion)
chain: B1 chain with D148A, A150E
B9: canine IgG.B Fc variant Y436A with SASA tag (Fc fusion)
chain: B1 chain with A150E, Y208A
B10: canine IgG.B Fc variant Q311A with SASA tag (Fc fusion)
chain: B1 chain with Q81A, A150E
B11: canine IgG.B Fc variant T250A with SASA tag (Fc fusion)
chain: B1 chain with T20A, A150E
B12: canine IgG.B Fc variant A254S with SASA tag (Fc fusion)
chain: B1 chain with A24S, A150E
B13: canine IgG.B Fc variant K315A with SASA tag (Fc fusion)
chain: B1 chain with K85A, A150E
B14: canine IgG.B Fc variant N434A with SASA tag (Fc fusion)
chain: B1 chain with A150E, N206A
B15: canine IgG.B Fc variant M428A with SASA tag (Fc fusion)
chain: B1 chain with A150E, M200A
B16: canine IgG.B Fc variant L252A with SASA tag (Fc fusion)
chain: B1 chain with L22A, A150E
B17: canine IgG.B Fc variant T286A with SASA tag (Fc fusion)
chain: B1 chain with T56A, A150E
B18: canine IgG.B Fc variant T250Q with SASA tag (Fc fusion)
chain: B1 chain with T20Q, A150E
B19: canine IgG.B Fc variant T250E with SASA tag (Fc fusion)
chain: B1 chain with T20E, A150E
B20: wild-type canine IgG.B Fc (CH2 and CH3 domains) with upstream SASA tag (Fc fusion)
chain: B1 chain with A150E
B21: canine IgG.B Fc variant L252Y with SASA tag (Fc fusion)
chain: B1 chain with L22Y, A150E
B22: canine IgG.B Fc variant L252M with SASA tag (Fc fusion)
chain: B1 chain with L22M, A150E
B23: canine IgG.B Fc variant A254T with SASA tag (Fc fusion)
chain: B1 chain with A24T, A150E
B24: canine IgG.B Fc variant G309P with SASA tag (Fc fusion)
chain: B1 chain with G79P, A150E
B25: canine IgG.B Fc variant Q311V with SASA tag (Fc fusion)
chain: B1 chain with Q81V, A150E
B26: canine IgG.B Fc variant D378V with SASA tag (Fc fusion)
chain: B1 chain with D148V, A150E
B27: canine IgG.B Fc variant N434W with SASA tag (Fc fusion)
chain: B1 chain with A150E, N206W
B28: canine IgG.B Fc variant N434Y with SASA tag (Fc fusion)
chain: B1 chain with A150E, N206Y
B29: canine IgG.B Fc variant N434S with SASA tag (Fc fusion)
chain: B1 chain with A150E, N206S
B30: canine IgG.B Fc variant N434R with SASA tag (Fc fusion)
chain: B1 chain with A150E, N206R
B31: canine IgG.B Fc variant N434H with SASA tag (Fc fusion)
chain: B1 chain with A150E, N206H
B32: canine IgG.B Fc YTE variant (L252Y/A254T/T256E) with SASA tag (Fc fusion)
chain: B1 chain with L22Y, A24T, T26E, A150E

Residue numbers refer to the chain shown, from its start. In names and notes the source's numbering stands. Several values for one entry are separate records, joined by “and”; a condition that tells them apart may be missing. Equal entries are not always repeated.

The first test has as its target T1, canine FcRn (canine).
T1 construct: Injected in solution as SPR analyte
As to the kind of experiment: SPR, pH 5.5, FcRn 400 nM over captured Fc.
For the molecule B1, the Kd was 618 nM and 747 nM; the koff is 0.369 s⁻¹ and 0.18 s⁻¹; the kon is 598000 M⁻¹ s⁻¹ and 241000 M⁻¹ s⁻¹.

Turning to B2, the Kd is 447 nM and 298 nM.

Consider B3, for which the Kd was 266 nM and 359 nM; the koff is 0.229 s⁻¹ and 0.0997 s⁻¹.

In the case of B4, the Kd was 245 nM and 294 nM.

Consider B5, for which the Kd is 472 nM and 563 nM; the koff was 0.169 s⁻¹ and 0.194 s⁻¹; the kon was 357000 M⁻¹ s⁻¹ and 345000 M⁻¹ s⁻¹.

As for B6, the Kd was 325 nM and 338 nM.

Regarding B7, the Kd is 341 nM and 257 nM.

For B8, the Kd was 673 nM and 592 nM; the koff is 0.183 s⁻¹ and 0.181 s⁻¹; the kon is 272000 M⁻¹ s⁻¹ and 306000 M⁻¹ s⁻¹.

For the molecule B9, the Kd is 393 nM and 876 nM; the koff was 0.407 s⁻¹ and 0.213 s⁻¹.

As for B10, the Kd was 368 nM and 370 nM; the koff was 0.894 s⁻¹ and 0.496 s⁻¹; the kon is 2.43e+06 M⁻¹ s⁻¹ and 1.34e+06 M⁻¹ s⁻¹.

In the case of B11, the Kd is 335 nM and 328 nM.

B12: the Kd is 340 nM and 317 nM.

Consider B13, for which the Kd was 422 nM and 548 nM.

For B14, the Kd was 457 nM and 494 nM; the koff was 0.237 s⁻¹ and 0.477 s⁻¹; the kon was 518000 M⁻¹ s⁻¹ and 966000 M⁻¹ s⁻¹.

For the molecule B15, the Kd is 723 nM and 1670 nM; the kon is 234000 M⁻¹ s⁻¹ and 318000 M⁻¹ s⁻¹.

Turning to B16, the Kd is 292 nM and 240 nM.

Regarding B17, the Kd was 464 nM and 569 nM; the koff was 0.196 s⁻¹ and 0.304 s⁻¹; the kon was 422000 M⁻¹ s⁻¹ and 533000 M⁻¹ s⁻¹.

The target in another test is T1, canine FcRn. As to the kind of experiment: SPR, pH 5.5, FcRn 200 nM over captured Fc.
B18: the Kd is 2590 nM and 2840 nM; the koff was 0.258 s⁻¹ and 0.268 s⁻¹; the kon is 99600 M⁻¹ s⁻¹ and 94300 M⁻¹ s⁻¹.

Consider B19, for which the Kd was 2480 nM and 1660 nM; the koff is 0.284 s⁻¹ and 0.287 s⁻¹; the kon was 114000 M⁻¹ s⁻¹ and 172000 M⁻¹ s⁻¹.

As to B20, the Kd was 8990 nM and 3110 nM; the koff was 0.347 s⁻¹ and 0.354 s⁻¹; the kon was 38700 M⁻¹ s⁻¹ and 114000 M⁻¹ s⁻¹.

In another test the target is T1, canine FcRn. As to the kind of experiment: SPR, pH 5.5, FcRn 200 nM over captured Fc. The source holds these as a separate data set.
Turning to B21, the Kd is 98.7 nM and 114 nM; the koff was 0.0397 s⁻¹ and 0.041 s⁻¹; the kon is 402000 M⁻¹ s⁻¹ and 358000 M⁻¹ s⁻¹.

Take B20: the Kd was 1710 nM and 2660 nM; the koff is 0.288 s⁻¹ and 0.326 s⁻¹; the kon is 168000 M⁻¹ s⁻¹ and 123000 M⁻¹ s⁻¹.

As for B22, the Kd was 869 nM and 774 nM; the koff is 0.168 s⁻¹ and 0.169 s⁻¹; the association rate constant (kon) is 193000 M⁻¹ s⁻¹ and 218000 M⁻¹ s⁻¹.

The target in the next test is T1, canine FcRn. As to the kind of experiment: SPR, pH 5.5, FcRn 200 nM over captured Fc. This is another data set of the same source.
Take B23: the Kd was 2290 nM and 1340 nM; the koff is 0.375 s⁻¹ and 0.433 s⁻¹; the kon is 163000 M⁻¹ s⁻¹ and 323000 M⁻¹ s⁻¹.

Take B20: the Kd is 2050 nM and 2990 nM; the koff is 0.31 s⁻¹ and 0.315 s⁻¹; the kon is 151000 M⁻¹ s⁻¹ and 105000 M⁻¹ s⁻¹.

The target in a further test is T1, canine FcRn. As to the kind of experiment: SPR, pH 5.5, FcRn 200 nM over captured Fc. The source holds these as a separate data set.
On to B24, for which the Kd is 635 nM and 434 nM and 637 nM and 718 nM; the koff is 0.239 s⁻¹ and 0.242 s⁻¹ and 0.132 s⁻¹ and 0.145 s⁻¹; the kon is 377000 M⁻¹ s⁻¹ and 558000 M⁻¹ s⁻¹ and 207000 M⁻¹ s⁻¹ and 202000 M⁻¹ s⁻¹.

As for B20, the Kd was 884 nM and 862 nM; the koff is 0.21 s⁻¹ and 0.218 s⁻¹; the kon was 237000 M⁻¹ s⁻¹ and 253000 M⁻¹ s⁻¹.

The next test has as its target T1, canine FcRn. As to the kind of experiment: SPR, pH 5.5, FcRn 200 nM over captured Fc. The source holds these as a separate data set.
Take B25: the Kd was 372 nM and 439 nM; the koff is 0.566 s⁻¹ and 0.696 s⁻¹; the kon is 1.52e+06 M⁻¹ s⁻¹ and 1.59e+06 M⁻¹ s⁻¹.

With B20, the Kd is 639 nM and 692 nM; the koff is 0.17 s⁻¹ and 0.171 s⁻¹; the kon was 267000 M⁻¹ s⁻¹ and 247000 M⁻¹ s⁻¹.

The next test addresses T1, canine FcRn. As to the kind of experiment: SPR, pH 5.5, FcRn 200 nM over captured Fc. The source holds these as a separate data set.
For B26, the Kd was 693 nM and 873 nM; the koff was 0.159 s⁻¹ and 0.16 s⁻¹; the kon was 229000 M⁻¹ s⁻¹ and 184000 M⁻¹ s⁻¹.

Take B20: the Kd is 502 nM and 784 nM; the koff was 0.169 s⁻¹ and 0.207 s⁻¹; the kon was 336000 M⁻¹ s⁻¹ and 264000 M⁻¹ s⁻¹.

In the next test the target is T1, canine FcRn. As to the kind of experiment: SPR, pH 5.5, FcRn 200 nM over captured Fc. This is another data set of the same source.
Regarding B1, the Kd is 1320 nM and 1570 nM; the koff is 0.223 s⁻¹ and 0.239 s⁻¹; the kon is 168000 M⁻¹ s⁻¹ and 152000 M⁻¹ s⁻¹.

On to B20, for which the Kd was 1560 nM and 754 nM; the koff is 0.179 s⁻¹ and 0.182 s⁻¹; the kon is 115000 M⁻¹ s⁻¹ and 242000 M⁻¹ s⁻¹.

Another test concerns the target T1, canine FcRn. As to the kind of experiment: SPR, pH 5.5, FcRn 200 nM over captured Fc. This is another data set of the same source.
For the molecule B27, the Kd is 40.4 nM and 75.7 nM.

With B14, the Kd was 573 nM and 629 nM; the koff is 0.156 s⁻¹ and 0.164 s⁻¹; the kon was 272000 M⁻¹ s⁻¹ and 261000 M⁻¹ s⁻¹.

As to B28, the Kd amounted to 15.9 nM, the koff amounted to 0.00968 s⁻¹ and the kon came out at 607000 M⁻¹ s⁻¹.

As to B29, the Kd is 924 nM and 1050 nM; the koff was 0.207 s⁻¹ and 0.209 s⁻¹; the on-rate (kon) is 225000 M⁻¹ s⁻¹ and 199000 M⁻¹ s⁻¹.

Take B30: the Kd is 107 nM and 159 nM; the koff is 0.0524 s⁻¹ and 0.0633 s⁻¹; the kon is 488000 M⁻¹ s⁻¹ and 399000 M⁻¹ s⁻¹.

As to B20, the Kd is 955 nM and 1310 nM; the koff is 0.181 s⁻¹ and 0.209 s⁻¹; the kon is 190000 M⁻¹ s⁻¹ and 159000 M⁻¹ s⁻¹.

For the next test, the target named is T1, canine FcRn. As to the kind of experiment: SPR, pH 5.5, FcRn 100-800 nM over captured Fc.
B31 displayed a Kd of 247 nM, a koff of 0.102 s⁻¹ and a kon of 411000 M⁻¹ s⁻¹.

With B32, the Kd was 184 nM, the koff was 0.046 s⁻¹ and the kon was 250000 M⁻¹ s⁻¹.

As for B27, the dissociation constant Kd was 101 nM, the koff turned out to be 0.045 s⁻¹ and the kon was 446000 M⁻¹ s⁻¹.

Molecule B21 had a Kd of 173 nM, a koff of 0.0476 s⁻¹ and a kon of 275000 M⁻¹ s⁻¹.

Turning to B28, the affinity, expressed as Kd, was 29.1 nM; the koff was 0.0151 s⁻¹; the kon is 520000 M⁻¹ s⁻¹.

B30 had a Kd of 182 nM, a koff of 0.0801 s⁻¹ and a kon of 440000 M⁻¹ s⁻¹.

Take B20: the Kd was determined as 3150 nM, the koff was found to be 0.527 s⁻¹ and the kon turned out to be 168000 M⁻¹ s⁻¹.

The target in the next test is T1, canine FcRn. As to the kind of experiment: SPR, pH 5.5, FcRn 400 nM over captured Fc; average of the wild type replicates.
In the case of B20, the affinity, expressed as Kd, was 566 nM.
